Measured values as given in patent US20160083480A1 (Zymeworks, published 2016).

B1: v877 (monospecific bivalent antibody with two identical HER3-binding scFvs connected to a homodimeric Fc) (antibody, V domains shown)
VH: QVQLQESGGGLVKPGGSLRLSCAASGFTFSSYWMSWVRQAPGKGLEWVANINRDGSASYYVDSVKGRFTISRDDAKNSLYLQMNSLRAEDTAVYYCARDRGVGYFDLWGRGTLVTVSS
VL: QSALTQPASVSGSPGQSITISCTGTSSDVGGYNFVSWYQQHPGKAPKLMIYDVSDRPSGVSDRFSGSKSGNTASLIISGLQADDEADYYCSSYGSSSTHVIFGGGTKVTVL
notes: also called variant 877; monospecific bivalent control for HER3
B2: Variant 880 (bi-specific anti-HER2-HER3 antibody; B1D2 scFv on chain A, H3 scFv on chain B, heterodimeric Fc) (bispecific antibody)
scFv-Fc A: QVQLVQSGAEVKKPGESLKISCKGSGYSFTSYWIAWVRQMPGKGLEYMGLIYPGDSDTKYSPSFQGQVTISVDKSVSTAYLQWSSLKPSDSAVYFCARHDVGYCTDRTCAKWPEWLGVWGQGTLVTVSSGGGGSSGGGSGGGGSQSVLTQPPSVSAAPGQKVTISCSGSSSNIGNNYVSWYQQLPGTAPKLLIYDHTNRPAGVPDRFSGSKSGTSASLAISGFRSEDEADYYCASWDYTLSGWVFGGGTKLTVLGAAEPKSSDKTHTCPPCPAPELLGGPSVFLFPPKPKDTLMISRTPEVTCVVVDVSHEDPEVKFNWYVDGVEVHNAKTKPREEQYNSTYRVVSVLTVLHQDWLNGKEYKCKVSNKALPAPIEKTISKAKGQPREPQVYTYPPSRDELTKNQVSLTCLVKGFYPSDIAVEWESNGQPENNYKTTPPVLDSDGSFALVSKLTVDKSRWQQGNVFSCSVMHEALHNHYTQKSLSLSPGK
scFv-Fc B: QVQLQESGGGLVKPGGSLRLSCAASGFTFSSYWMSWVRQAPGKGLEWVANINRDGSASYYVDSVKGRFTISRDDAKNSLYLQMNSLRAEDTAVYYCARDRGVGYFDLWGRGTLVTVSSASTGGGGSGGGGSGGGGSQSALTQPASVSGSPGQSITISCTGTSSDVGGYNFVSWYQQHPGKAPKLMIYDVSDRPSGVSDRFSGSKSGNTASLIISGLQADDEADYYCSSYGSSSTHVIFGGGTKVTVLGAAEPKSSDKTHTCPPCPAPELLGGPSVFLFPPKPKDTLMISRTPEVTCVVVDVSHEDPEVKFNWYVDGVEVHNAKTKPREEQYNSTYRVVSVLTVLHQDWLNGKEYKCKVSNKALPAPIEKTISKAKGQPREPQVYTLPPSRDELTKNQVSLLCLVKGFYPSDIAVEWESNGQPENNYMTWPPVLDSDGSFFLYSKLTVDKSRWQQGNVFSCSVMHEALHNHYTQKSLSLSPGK
notes: also called v880; bsAb variant 880

What was measured:
[1] = target: T1, HER3 on human tumour cells (human, UniProt P21860 20-1342); assay: flow cytometry on MALME-3M cells, fluorochrome-labelled secondary antibody
T1 construct: whole, on cells; also called ErbB3
Procedure: (§1) The FACS analysis was carried out as described below.
(§2) Cells were washed with PBS and resuspended in DMEM containing 10% FBS at 1×10⁵ cells/100 μl. 100 μl cell suspension was added into each microcentrifuge tube, followed by 10 μl/tube of the antibody variants. The tubes were incubated for 2 hr 4° C. on a rotator. The microcentrifuge tubes were centrifuged for 2 min 2000 RPM at room temperature and the cell pellets washed with 500 μl media. Each cell pellet was resuspended 100 μl of fluorochrome-labelled secondary antibody diluted in media to 2 μg/sample. The samples were then incubated for 1 hr at 4° C. on a rotator. After incubation, the cells were centrifuged for 2 min at 2000 RPM and washed in media. The cells were resuspended in 500 μl media, filtered in tube containing 5 μl propidium iodide (PI) and analyzed on a BD™ LSRII flow cytometer according to the manufacturer's instructions.

[2] = target: T2, HER2 and HER3 co-expressed on human tumour cells (human, UniProt P04626 23-1255; P21860 20-1342); assay: cell-based or functional assay
[3] = target: T2, HER2 and HER3 co-expressed on human …; assay: flow cytometry on MALME-3M cells, fluorochrome-labelled secondary antibody
Procedure: as §1, §2

| Binder | binding result [1] | BT-474 cell viability relative to untreated cells (Sulforhodamine B, 6 days, no heregulin) [2] | EC50 (read off the curve) [3] |
| --- | --- | --- | --- |
| B1 | binds |  |  |
| B2 |  | 36 % increase | ~10 nM |
